Test results published in patent publication US12357670B2, “Topical cream-based cosmetic and wound healing formulations and methods of use” (Eir Pharmaceuticals, LLC, priority 2018, dated 2025).

Legend:
[1] = Isoelectric point / net charge of TRIM family member; format: physicochemical
[2] = Stability of protein in the cream-based formulation (SDS-PAGE); format: physicochemical; conditions: in the cream formulations, stored at room temperature
Procedure: Stability is a major issue in incorporating recombinant proteins as active ingredients into a commercial product. […] Samples were then prepared for analysis and loaded onto an SDS-PAGE gel.
The samples were: Lane 1 contains TRIM Family Member protein that was stored in Phosphate Buffered Saline (PBS) at 4° C. for 13 months. Lane 2-4 are samples of the cream-based formulation containing the TRIM Family Member protein. The arrows indicate the band corresponding to the molecular weight of TRIM Family Member protein in each of the samples in Lanes 2-4. […] This is indicated by the lack of doublet bands in the cream samples. Thus, these formulations for the Emulsifier and Hydrogel are viable systems to maintain the activity of the active ingredient.

## TRIM Family Member protein: TRIM-family member protein, MG53, active ingredient of the cream
[1]
  isoelectric point: 6.08
[1]; physiological pH of blood (7.35)
  net charge: negative
[2]
  activity of the active ingredient on storage: remains active for over one year
